Experimental data reported in FireProtDB (doi:10.1021/bi201411c).

B1: Cyanovirin-N, P81180 (parent)
chain: LGKFSQTCYNSAIQGSVLTSTCERTNGGYNTSSIDLNSVIENVDGSLKWQPSNFIETCRNTQLAGSSELAAECKTRAQQFVSTKINLDDHIANIDGTLKYE

Variants of: B1
Details: Nostoc ellipsosporum, pH 6, sodium phosphate 20 mM, transition: 2, reversible: yes(90%), structure 1IIY, whole UniProt chain shown; for denaturant m value / denaturant midpoint (higher = more stable): 25 °C, GdnHCl; for Tm / change of melting temperature, mutant - wild type (higher = more stable): Thermal

Variant | denaturant m value (CD) | denaturant midpoint (higher = more stable) (CD) | denaturant m value (fluorescence) | denaturant midpoint (higher = more stable) (fluorescence) | Tm (CD) | change of melting temperature, mutant - wild type (higher = more stable) (CD)
LGKFSQTCYNAAIQGSVLTATCERTNGGYNTSSIDLNSVIENVDGSLKWQGSNFIETCRNIQLAGSSELAAECKTRAQQFVSTKINLDDHIANIDGTLKYE [P51G S11A S20A T61I] | 1.7 kcal/mol/M | 3.3 M | 2.1 kcal/mol/M | 3.5 M | 75.8 °C | 9.2 °C
LGKFSQTCYNSAIQGSVLTSTCERTNGGYNTSSIDLNSVIENVDGSLKWQGSNFIETCRNTQLAGSSELAAECKTRAQQFVSTKINLDDHIANIDGTLKYE [P51G] | 2.5 kcal/mol/M | 2.2 M | 2.6 kcal/mol/M | 2.3 M | 64.3 °C | -2.3 °C
LGKFSQTCYNIAIQGSVLTATCERTNGGYNTSSIDLNSVIENVDGSLKWQGSNFIETCRNTQLAGSSELAAECKTRAQQFVSTKINLDDHIANIDGTLKYE [P51G S11I S20A] | 2 kcal/mol/M | 3.1 M |  |  |  | 
LGKFSQTCYNAAIQGSVLTATCERTNGGYNTSSIDLNSVIENVDGSLKWQGSNFIETCRNTQLAGSSELAAECKTRAQQFVSTKINLDDHIANIDGTLKYE [P51G S11A S20A] | 2.4 kcal/mol/M | 2.5 M |  |  | 69.6 °C | 3 °C
LGKFSQTCYNVAIQGSVLTATCERTNGGYNTSSIDLNSVIENVDGSLKWQGSNFIETCRNVQLAGSSELAAECKTRAQQFVSTKINLDDHIANIDGTLKYE [P51G S11V S20A T61V] | 1.7 kcal/mol/M | 2.9 M | 2.1 kcal/mol/M | 3 M | 74.5 °C | 7.9 °C
LGKFSQTCYNVAIQGSVLTATCERTNGGYNTSSIDLNSVIENVDGSLKWQGSNFIETCRNTQLAGSSELAAECKTRAQQFVSTKINLDDHIANIDGTLKYE [P51G S11V S20A] | 2.6 kcal/mol/M | 2.8 M | 2.6 kcal/mol/M | 2.8 M | 69.8 °C | 3.2 °C
